Test [1] has as its target T1, PfCSPFL, recombinant full-length P. falciparum NF54 circumsporozoite protein devoid of signal peptide and GPI … (P. falciparum NF54, UniProt P19597).
For test [2], the target named is T2, PfCSPC, C-terminal αTSR domain of P. falciparum NF54 circumsporozoite protein (E310-S384) (P. falciparum NF54, UniProt P19597).
The target of test [3] is T2, PfCSPC, C-terminal αTSR domain of P. …. Description: crystal structure; sdAb:PfCSPC complex prepared at 1.2:1, purified by SEC in 20 mM Tris-HCl, 150 mM NaCl, pH 7.5; sitting drop at 20°C; tags retained; data to ~2.1 Å. The conditions noted are these: both partners purified. A general note: SEC sorts molecules by how far they enter the pores of the column.
Test [4] addresses T3, full-length CSP from P. falciparum 3D7 on the surface of transgenic P. berghei ANKA sporozoites (PfCSP-PbSPZs) (P. falciparum 3D7, UniProt Q7K740).
T3 construct: Full-length circumsporozoite protein of P. falciparum 3D7, expressed on transgenic P. berghei ANKA sporozoites; The same protein on midgut (MG) and salivary gland (SG) sporozoites; the assays tell them apart; also called PfCSP on MG SPZs; PfCSP on SG SPZs; source: transgenic P. berghei ANKA sporozoites isolated from midguts or salivary glands of Anopheles stephensi
Kind of test: flow cytometry on cells; salivary gland PfCSP-PbSPZs (15- and 22-day-old), formaldehyde-fixed; sdAb incubated at ambient temperature; detected with anti-HA Alexa Fluor 647; MFI. Conditions: one partner purified. On the technique in general: A flow cytometer gives signals particle by particle.

Test [5] has as its target T1, PfCSPFL, recombinant full-length P. …. Description: ELISA; antigen coated at 1 µg/mL on Maxisorb plates, blocked with 5% milk in PBS; purified sdAb at 1 µg/mL, 1 h at room temperature, triplicates; detected with anti-HA mAb and anti-mouse-HRP. Conditions: both partners purified. In general terms: An ELISA detects its analyte on a solid surface through an enzyme-linked reagent.

For test [6], the target named is PbCSPFL, recombinant full-length P. berghei ANKA circumsporozoite protein devoid of signal peptide and GPI … (Plasmodium berghei ANKA, UniProt P23093). The test is described as above. The conditions noted are these: both partners purified.

The source of these data is paper PMC12150756 (Infection and Immunity, 2025).

Where two headings read alike, the source gives them in different places.

T2 sequence (P19597 310-384): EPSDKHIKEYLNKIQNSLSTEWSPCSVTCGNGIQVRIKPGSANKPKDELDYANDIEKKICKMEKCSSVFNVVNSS
T1 sequence (P19597 20-384): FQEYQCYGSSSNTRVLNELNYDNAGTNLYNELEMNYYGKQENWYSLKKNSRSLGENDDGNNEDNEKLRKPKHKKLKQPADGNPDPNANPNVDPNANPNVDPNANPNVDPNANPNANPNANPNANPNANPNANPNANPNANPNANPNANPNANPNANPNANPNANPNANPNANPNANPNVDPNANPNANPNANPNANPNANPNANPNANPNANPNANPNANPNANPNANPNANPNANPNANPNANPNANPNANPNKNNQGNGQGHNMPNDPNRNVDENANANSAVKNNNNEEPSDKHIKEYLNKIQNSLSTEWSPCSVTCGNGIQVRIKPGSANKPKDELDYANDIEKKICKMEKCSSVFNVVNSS
T3 sequence (Q7K740 19-374): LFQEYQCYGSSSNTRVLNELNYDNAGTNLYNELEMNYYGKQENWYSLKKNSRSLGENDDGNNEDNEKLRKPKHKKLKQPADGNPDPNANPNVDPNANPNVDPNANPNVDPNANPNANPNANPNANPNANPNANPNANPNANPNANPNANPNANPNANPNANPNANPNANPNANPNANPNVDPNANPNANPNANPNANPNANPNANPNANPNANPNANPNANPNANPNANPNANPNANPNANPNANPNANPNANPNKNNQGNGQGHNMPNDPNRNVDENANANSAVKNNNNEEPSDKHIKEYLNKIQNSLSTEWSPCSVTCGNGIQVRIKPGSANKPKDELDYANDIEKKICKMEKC

B1: sdAb4 (VHH)
VHH: QVQLQESGGGLVQVGGSLRLSCAASGRTFSSYTMAWFRQAPGKEREFVAAISRSGSNTYYADSVKGRFTISRDNAKNTVYLQMSSLYPEDTAVYTCAARDAILLLTTTHYDYWGQGTQVTVSS
As to B1, the binding result in test [1] and in test [2] was “binds” each time.

B2: sdAb8 (VHH)
VHH: QVQLQESGGGLVQAGGSLRLSCAASGRTVSSYTMGWFRQAPGKERSFVAASLRSGGSTYYSDSVKGRFTISRDNAKNTVYLQMNSLRPEDTAVYYCAADEQLAYNINYNYRNYDYWGQGTQVTVSS
As to B2, the binding result in test [1] and in test [2] was “binds” in each case.

B3: sdAb5 (VHH)
VHH: QVQLQESGGGLVQAGGSLRLSCAASGRTFGSYVMGWFRQAPGKEREFVAAISRSGGTTYYADSVKGRFAISRDNAKNTVFLQMNSLKPEDTAVYYCAATTTISMLVVLTTTPKYDYWGQGTQVTVSS
As to B3, the binding result in test [1] and in test [2] was “binds” throughout.

B4: sdAb18 (VHH)
VHH: QVQLQESGGGLVQPGGSLNLSCTAGVSLDYYAIGWFRQAPGKEREFVARISSSGGNTYYADSVRGRFTISRDNAKNTVYLQMNSLKPEDTAVYYCAADLLQFGRSSRAADYDYWGQGTQVTVSS
As to B4, the binding result in test [1] and in test [2] was “binds” in each case.

B5: sdAb7 (VHH)
VHH: QVQLQESGGGVVQTGGSLRLSCAASVRTFSNYALGWFRQAPGKEREFVARISSSGGNTYYADSVRGRFTISRDNAKNTVYLQMNSLKPEDTAVYYCAADLLQFGRSSRAADYDYWGQGTQVTVSS
For the molecule B5, the binding result in test [1] and in test [2] was “binds” each time.

B6: sdAb1, anti-PfCSP camelid single-domain antibody (VHH)
VHH: QVQLQESGGGLVQAGGSLRLSCAASGRTFSSYSMGWFRLVPGKEREFVARISSSGGNTYYADSVRGRFTISRDNAKNTVYLQMNSLKPEDTAVYYCAADLLQFGRSSRAADYDYWGQGTQVTVSS
notes: from the library of the alpaca Attitude (immunized with PfCSPFL); Expressed from pMECS-GG; Same VHH family as sdAb9; source: E. coli WK6, periplasmic extract, purified (Ni-NTA, SEC); crude bacterial extract for the screening ELISA
B6: the binding result in test [3] is “binds”; in test [4], “binds”; in test [5] it was “binds”; in test [6], “no binding (tested: 1 µg/mL sdAb)”.

B7: sdAb2 (VHH)
VHH: QVQLQESGGGLVQFGGSLRLSCAASGFTFSSANMSWVRQAPGKGLEWVSTISPGGGTTSYAGSVKGRFTISRDNAKNTLYLQMNALKPEDTAVYYCATGGPSSQESVYRGQGTQVTVSS
Take B7: the binding result in test [1] and in test [2] was “binds” throughout.

B8: sdAb10 (VHH)
VHH: QVQLQESGGGLVQPGGSLRLSCAASGRTFSSYTMGWFRQAPGKERELVAAISRSGLNTDYADSVKGRFTISRDNAKNTVYLQMNTLKPEDTAVYYCAARSTIRLLTDPSYDYWGQGTQVTVSS
With B8, the binding result in test [1] and in test [2] was “binds” each time.

B9: sdAb3 (VHH)
VHH: QVQLQESGGGLVQAGGSLRLSCAASGRTFTEYSMGWFRQAPGKEREFVARISWSGGSTYYADSVKGRFTISRDNAENTVYLQMTSLKPEDTAVYYCAADQLQFGRNSRAADYDDWGQGTQVTVSS
In the case of B9, the binding result in test [1] and in test [2] was “binds” throughout.

B10: sdAb15 (VHH)
VHH: QVQLQESGGGLVQAGGSLRLSCVATGRPFDDYTVAWFRQAPGKERDFVAAISRSGVSTYYQDDVKGRFTISRDNARNTAYLSMNSLKPEDTAVYYCAARSTIRLLTDPSYDYWGQGTQVTVSS
Consider B10, for which the binding result in test [1] and in test [2] was “binds” throughout.

B11: sdAb6 (VHH)
VHH: QVQLQESGGGLVQAGGSLRVSCVGSGRAFSRYSMGWFRQFPGKEREFVACISSSGGAIDYADSVKGRFTISRDNAKNAVYLQMNSLKPDDTAVYYCAADQFRISTVPMGVIDYWGQGTQVTVSS
B11: the binding result in test [1] and in test [2] was “binds” each time.

B12: sdAb9, anti-PfCSP camelid single-domain antibody (VHH)
VHH: QVQLQESGGGLVQAGGSLRLSCAASGRTFSSYSMGWFRQVPGKEREFVARITSSGGNTDYADSAKGRFTISRDNAKNTVYLQMSTLKPEDTAVYYCAADLWQYGRNSRAADYDYWGQGTQVTVSS
notes: from the library of the alpaca Attitude (immunized with PfCSPFL); Expressed from pMECS-GG; Same VHH family as sdAb1; source: E. coli WK6, periplasmic extract, purified (Ni-NTA, SEC); crude bacterial extract for the screening ELISA
Take B12: the binding result in test [3] is listed as “binds”; in test [4] it was “binds”; in test [5], “binds”; in test [6], “no binding (tested: 1 µg/mL sdAb)”.
